Literature values, collected in publication PMC8145179.

Molecular target: Cys215 (UniProt position 215, PVVVHCSAGIG)
Conditions: apo (ligand-free) enzyme

In the case of “Protein tyrosine phosphatase 1B (PTP1B) (Homo sapiens (inferred; not stated in the article))”, the pKa is listed as 5.4.
